Source: US20120184457A1, “Modulation of miRNA Activity” (Cambridge Enterprise Limited, priority 2009, published 2012)

Assays:
ZCCHC11 = target: T1, ZCCHC11 (Homo sapiens, UniProt Q5TAX3); test: Screening assay for ZCCHC poly(U) polymerase inhibitors: in vitro uridylation of 5'-end-labeled pre-let-7; assay type: biochemical
T1 construct: expressed in transfected cells; host or cells: HEK293T
Description: HEK293T cells were transfected with pHA-FLAG-ZCCHC11. After 48 hrs cells were lysed. 50 μl of the supernatant was incubated with 5 μl of pre-washed anti-FLAG antibody conjugated to agarose beads (Sigma) and incubated for 2 hrs at 4° C. Agarose-beads were washed twice with lysis buffer and twice with buffer D. For in vitro uridylation, agarose beads were incubated in a 30 μl reaction containing 3.2 mM of MgCl2, 1 mM of DTT and 0.25 mM of rUTP, 5 mM of test compound and 5′-end-labeled pre-let-7 of 1×10^4-1×10^5 cpm, for 20 min at 37° C. RNA was purified by Trizol extraction and isopropanol precipitated. Reactions were analysed in a 12% urea polyacrylamide gel.

[1] = target: T2, LIN-28 (GST-LIN-28) (Caenorhabditis elegans) (UniProt P92186); test: EMSA; conditions: estimated; 50 mM Tris pH 7.6, 100 mM NaCl, 5 mM MgOAc2, tRNA competitor, room temperature
T2 sequence: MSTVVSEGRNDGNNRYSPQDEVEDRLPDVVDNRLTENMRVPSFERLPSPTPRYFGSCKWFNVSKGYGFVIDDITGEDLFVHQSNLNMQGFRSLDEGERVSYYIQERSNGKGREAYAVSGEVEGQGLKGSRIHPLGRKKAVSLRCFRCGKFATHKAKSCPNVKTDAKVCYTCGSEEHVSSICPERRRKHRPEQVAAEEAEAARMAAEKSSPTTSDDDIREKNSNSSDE

[2] = test system: recombinant GST-LIN-28 (C. elegans LIN-28 fused to glutathione-S-transferase) [GST: P08515]
Chain of recombinant GST-LIN-28 (C. elegans LIN-28 fused to glutathione-S-transferase) [GST: P08515] (P08515 whole entry, looked up, the tested form may be a part): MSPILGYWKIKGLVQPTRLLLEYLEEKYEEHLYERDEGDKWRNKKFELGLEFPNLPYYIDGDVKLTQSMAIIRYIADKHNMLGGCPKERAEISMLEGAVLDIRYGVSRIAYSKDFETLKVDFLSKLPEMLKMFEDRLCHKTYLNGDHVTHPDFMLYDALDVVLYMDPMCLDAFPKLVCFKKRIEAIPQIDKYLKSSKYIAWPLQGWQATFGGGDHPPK

T1 sequence (Q5TAX3 whole entry): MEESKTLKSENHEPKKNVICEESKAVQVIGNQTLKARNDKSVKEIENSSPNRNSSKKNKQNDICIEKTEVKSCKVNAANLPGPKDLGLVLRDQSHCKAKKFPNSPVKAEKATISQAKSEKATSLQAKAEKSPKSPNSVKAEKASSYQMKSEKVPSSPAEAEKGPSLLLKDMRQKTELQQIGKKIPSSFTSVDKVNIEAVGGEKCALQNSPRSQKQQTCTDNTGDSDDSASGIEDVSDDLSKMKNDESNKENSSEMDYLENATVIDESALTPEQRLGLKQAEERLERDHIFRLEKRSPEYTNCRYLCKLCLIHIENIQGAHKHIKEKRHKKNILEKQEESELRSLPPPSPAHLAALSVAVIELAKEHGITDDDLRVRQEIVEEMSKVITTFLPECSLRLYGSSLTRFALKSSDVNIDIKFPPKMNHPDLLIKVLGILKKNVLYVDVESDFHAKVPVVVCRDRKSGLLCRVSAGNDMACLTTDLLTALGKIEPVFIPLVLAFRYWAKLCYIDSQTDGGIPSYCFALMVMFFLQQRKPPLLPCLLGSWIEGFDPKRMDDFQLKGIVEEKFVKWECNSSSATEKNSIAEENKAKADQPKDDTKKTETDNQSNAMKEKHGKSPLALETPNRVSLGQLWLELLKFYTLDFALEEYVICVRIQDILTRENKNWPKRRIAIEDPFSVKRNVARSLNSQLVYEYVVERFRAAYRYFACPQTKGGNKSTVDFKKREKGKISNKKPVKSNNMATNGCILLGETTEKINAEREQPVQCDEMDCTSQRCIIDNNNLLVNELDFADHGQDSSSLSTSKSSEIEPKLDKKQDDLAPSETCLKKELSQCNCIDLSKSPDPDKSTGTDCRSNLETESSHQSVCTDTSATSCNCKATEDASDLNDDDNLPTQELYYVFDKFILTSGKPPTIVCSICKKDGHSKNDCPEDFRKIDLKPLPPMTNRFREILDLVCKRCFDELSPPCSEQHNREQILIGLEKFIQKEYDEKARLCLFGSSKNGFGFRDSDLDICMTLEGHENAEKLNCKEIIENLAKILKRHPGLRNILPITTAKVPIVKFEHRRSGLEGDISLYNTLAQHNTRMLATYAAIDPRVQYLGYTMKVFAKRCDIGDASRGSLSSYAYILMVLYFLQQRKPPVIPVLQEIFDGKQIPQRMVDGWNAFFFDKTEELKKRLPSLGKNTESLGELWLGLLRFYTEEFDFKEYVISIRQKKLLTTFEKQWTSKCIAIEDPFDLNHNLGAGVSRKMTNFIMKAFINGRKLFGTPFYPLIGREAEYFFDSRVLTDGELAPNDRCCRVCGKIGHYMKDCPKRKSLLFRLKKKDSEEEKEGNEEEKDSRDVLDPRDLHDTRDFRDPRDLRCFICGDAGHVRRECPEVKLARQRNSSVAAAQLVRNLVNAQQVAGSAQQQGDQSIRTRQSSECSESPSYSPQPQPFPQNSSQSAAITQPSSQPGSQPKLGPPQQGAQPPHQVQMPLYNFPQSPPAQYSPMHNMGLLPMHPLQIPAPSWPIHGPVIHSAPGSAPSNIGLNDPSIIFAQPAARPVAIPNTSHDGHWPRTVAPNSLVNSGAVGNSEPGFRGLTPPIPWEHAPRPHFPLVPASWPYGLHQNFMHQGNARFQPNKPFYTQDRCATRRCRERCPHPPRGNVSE

## uridine 5′-diphosphoglucuronic acid (UDP-GlcA) [compound 1]
ZCCHC11; FLAG immunoprecipitates, 5 mM of test compound, 20 min at 37° C., FIG. 15b
  uridylation activity of FLAG immunoprecipitates of ZCCHC11: reduces the uridylation activity
ZCCHC11; whole cell extracts of HEK293T cells transfected with pHA-FLAG-ZCCHC11, FIG. 15a
  uridylation activity of whole cell extracts (endogenous and HA-FLAG-ZCCHC11 uridylyl activities): reduces the uridylation activity

## pre-let-7 (in vitro transcribed)
[1]
  Kd: 2 µM

## recombinant MBP-PUP2 (C. elegans PUP2 fused to maltose binding protein)
[2]
  polyuridylation of pre-let-7 in vitro (uridylation assay, incorporation of alpha-32P-UTP): PUP2 was inactive on its own and required the addition of LIN-28 to polyuridylate pre-let-7
  uridylation assay: PUP2 is a LIN-28 dependent pre-let-7 polyuridylase in vitro
